Laboratory results reported in US11434299 (TENEOBIO, dated 2022).
Substitutions are numbered along the chain they refer to.

B1: SEQ ID NO 29 (antibody, V domains shown)
VH: EVQLLESGGGLVQPGGSLRLSCAASGFTFSSYAMNWVRQAPGKGLEWVSGIIGSGGSTYYADSVKGRFTISRDNSKNTLYLQMNSLRAEDTAVYYCVKDWNTTMITERGQGTLVTVSS
notes: UniAb: CH1 deleted, no light chain; HEK supernatant
B2: SEQ ID NO 38 (antibody, V domains shown)
VH: B1 VH with L11V, G16R, N35S
notes: as for B1
B3: SEQ ID NO 30 (antibody, V domains shown)
VH: B1 VH with L79V
notes: as for B1
B4: SEQ ID NO 50 (antibody, V domains shown)
VH: B1 VH with N35S, S57T, Y80N, V93I
notes: as for B1
B5: SEQ ID NO 41 (antibody, V domains shown)
VH: B1 VH with L11V, G16R, S31N
notes: as for B1
B6: SEQ ID NO 46 (antibody, V domains shown)
VH: B1 VH with N35S, Y59F
notes: as for B1
B7: SEQ ID NO 39 (antibody, V domains shown)
VH: B1 VH with S31N, N35S, T69S
notes: as for B1
B8: SEQ ID NO 42 (antibody, V domains shown)
VH: B1 VH with S31N
notes: as for B1
B9: SEQ ID NO 43 (antibody, V domains shown)
VH: B1 VH with R19T, S31N, G56A, S57T, Y80N, V93I
notes: as for B1
B10: SEQ ID NO 48 (antibody, V domains shown)
VH: B1 VH with S31N, N35T, V37I, I52T, S54D, Y59F
notes: as for B1
B11: SEQ ID NO 35 (antibody, V domains shown)
VH: B1 VH with N35S, I52T, T69S, Y80D
notes: as for B1
B12: SEQ ID NO 37 (antibody, V domains shown)
VH: B1 VH with S30T, S31N
notes: as for B1
B13: SEQ ID NO 23 (antibody, V domains shown)
VH: B1 VH with N35S, I52T, S54D, Y59F
notes: as for B1
B14: SEQ ID NO 32 (antibody, V domains shown)
VH: B1 VH with N35S, I51L, I52T, G56D, S75D, L79V
notes: as for B1
B15: SEQ ID NO 40 (antibody, V domains shown)
VH: B1 VH with N35S, A88V
notes: as for B1
B16: SEQ ID NO 52 (antibody, V domains shown)
VH: B1 VH with I52V, S54G, S57T, T58S, K65R
notes: as for B1
B17: SEQ ID NO 20 (antibody, V domains shown)
VH: B1 VH with V12A, V37I, I52S, L79V
notes: as for B1
B18: SEQ ID NO 36 (antibody, V domains shown)
VH: B1 VH with S31N, K43N, I51L, I52T, L79V
notes: as for B1
B19: SEQ ID NO 22 (antibody, V domains shown)
VH: B1 VH with N35T, I52T, G53E, S54N, Y80D
notes: as for B1
B20: SEQ ID NO 51 (antibody, V domains shown)
VH: B1 VH with S31N, I52T, A88V
notes: as for B1
B21: SEQ ID NO 47 (antibody, V domains shown)
VH: B1 VH with G16E, S31N, I52V, S54G, S57T, T58S, K65R
notes: as for B1
B22: SEQ ID NO 28 (antibody, V domains shown)
VH: B1 VH with I52T, T69S, Y80D
notes: as for B1
B23: SEQ ID NO 45 (antibody, V domains shown)
VH: B1 VH with L11V, G16R
notes: as for B1
B24: SEQ ID NO 24 (antibody, V domains shown)
VH: B1 VH with N35S, T69S, Y80D
notes: as for B1
B25: SEQ ID NO 31 (antibody, V domains shown)
VH: B1 VH with I52T, G56D, D62A, T69S, K76Q, Y80D
notes: as for B1
B26: SEQ ID NO 21 (antibody, V domains shown)
VH: B1 VH with G16R, S30T, S31N, I52S, S54G
notes: as for B1
B27: SEQ ID NO 27 (antibody, V domains shown)
VH: B1 VH with I51L, I52T, S54N, G56D, L79V
notes: as for B1
B28: SEQ ID NO 34 (antibody, V domains shown)
VH: B1 VH with S31R, V37I, I52V, S57N, T69S
notes: as for B1
B29: SEQ ID NO 49 (antibody, V domains shown)
VH: B1 VH with N35T, V37I, I52V, S54G, S57T, T58S, K65R
notes: as for B1
B30: SEQ ID NO 33 (antibody, V domains shown)
VH: B1 VH with S31N, N35T, V37I, I52T, S54D, Y59F, T69S, Y80D
notes: as for B1
B31: SEQ ID NO 44 (antibody, V domains shown)
VH: B1 VH with S31N, N35S
notes: as for B1
B32: SEQ ID NO 53 (antibody, V domains shown)
VH: B1 VH with S31N, A88V
notes: as for B1

molecular target: T1, human BCMA (B-Cell Maturation Antigen) on NCI-H929 cells (human, UniProt Q02223 1-184); assay: flow cytometry, HEK supernatants on NCI-H929 cells (BCMA+)
T1 construct: whole, on cells; Endogenous BCMA on NCI-H929 myeloma cells; also called TNFRSF17; H929 cells (BCMA+, lambda-)
T1 sequence (looked up): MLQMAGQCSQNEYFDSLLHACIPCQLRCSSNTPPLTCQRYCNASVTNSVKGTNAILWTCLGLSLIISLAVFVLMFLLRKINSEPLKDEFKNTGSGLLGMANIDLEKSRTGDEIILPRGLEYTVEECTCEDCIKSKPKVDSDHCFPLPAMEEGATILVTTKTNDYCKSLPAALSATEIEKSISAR
Protocol: Supernatants of all antibodies were also tested by flow cytometry for binding to RPMI-8226 cells (BCMA+, lambda+) and H929 cells (BCMA+, lambda−). The samples were measured by flow cytometry using a Guava easyCyte 8HT instrument from EMD Millipore and analyzed using guavaSoft. Bound antibodies were detected with goat anti-human IgG F(ab')_2 conjugated to PE (Southern Biotech 2042-09). All antibodies were diluted in PBS with 1% BSA. Positive staining was determined by comparison to staining with a human IgG1 isotype control. The NCI-H929 and RPMI-8226 cell lines are human multiple myeloma lines expressing human BCMA, which were obtained from the American Type Culture Collection (ATCC) and cultured according to ATCC recommendations.

Row | Binder | binding result
1 | B1 | binds
2 | B2 | binds
3 | B3 | binds
4 | B4 | binds
5 | B5 | binds
6 | B6 | binds
7 | B7 | binds
8 | B8 | binds
9 | B9 | binds
10 | B10 | binds
11 | B11 | binds
12 | B12 | binds
13 | B13 | binds
14 | B14 | binds
15 | B15 | binds
16 | B16 | binds

Row | Binder | binding result
17 | B17 | binds
18 | B18 | binds
19 | B19 | binds
20 | B20 | binds
21 | B21 | binds
22 | B22 | binds
23 | B23 | binds
24 | B24 | binds
25 | B25 | binds
26 | B26 | binds
27 | B27 | binds
28 | B28 | binds
29 | B29 | binds
30 | B30 | binds
31 | B31 | binds
32 | B32 | binds
